The results in this text go back to paper PMC4058633 (Nature protocols, 2013).

The series concerns the molecule itself. As to the kind of experiment: native MS.

B1: pentameric ligand-gated ion channel of Erwinia chrysanthemi (ELIC) (natural protein)
chain: APADNAADARPVDVSVSIFINKIYGVNTLEQTYKVDGYIVAQWTGKPRKTPGDKPLIVENTQIERWINNGLWVPALEFINVVGSPDTGNKRLMLFPDGRVIYNARFLGSFSNDMDFRLFPFDRQQFVLELEPFSYNNQQLRFSDIQVYTENIDNEEIDEWWIRKASTHISDIRYDHLSSVQPNQNEFSRITVRIDAVRNPSYYLWSFILPLGLIIAASWSVFWLESFSERLQTSFTLMLTVVAYAFYTSNILPRLPYTTVIDQMIIAGYGSIFAAILLIIFAHHRQAMGVEDDLLIQRCRLAFPLGFLAIGCVLVIRGITL
As usually defined, the stoichiometry N is a count of units in the complex or per binding partner. Consider B1, for which the “stoichiometry N” value came to 5.
